Literature values, collected in paper PMC3447994.
pKd: −log10 of the molar value.

Target: IgG Fc Fc (Homo sapiens) [IgG part: P01857]

Sequence of FcγRIIIa (P08637 17-254): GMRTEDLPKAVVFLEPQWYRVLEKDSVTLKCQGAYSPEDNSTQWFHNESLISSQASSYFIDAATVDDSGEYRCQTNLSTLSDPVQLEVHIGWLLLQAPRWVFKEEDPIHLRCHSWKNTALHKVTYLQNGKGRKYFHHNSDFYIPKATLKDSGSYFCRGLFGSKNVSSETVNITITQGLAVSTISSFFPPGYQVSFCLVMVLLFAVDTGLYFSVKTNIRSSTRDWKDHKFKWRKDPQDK

pKd: 5.70
Substance: FcγRIIIa (from UniProt P08637)
